Assay results taken from patent US20190175744A1, “INSULIN-INCRETIN CONJUGATES” (Merck Sharp & Dohme Corp., priority 2016, published 2019).

How the values were obtained:
[1] = target: human insulin receptor (IR), CHO cell line overexpressing human IR (pAkt assay) (human) (UniProt P06213); assay: cell-based or functional assay
[2] = target: minipig insulin receptor (IR) (minipig); assay: cell-based or functional assay

Row | Insulin Receptor pAK Assay EC50, Human [1] [nM] | Insulin Receptor pAK Assay EC50, Minipig [2] [nM] | Substance
1 | 0.48 | – | Insulin degludec (ligand)
2 | 0.51 | 0.5 | Insulin levemir (ligand)
